Consider 1 substance from patent US20200148733A1.

The target in this experiment is human IL-23 (human) (UniProt Q9NPF7). Put plainly: cell-based or functional assay.
Sequence of human IL-23 (human) (Q9NPF7 20-189, chain 1 of 2): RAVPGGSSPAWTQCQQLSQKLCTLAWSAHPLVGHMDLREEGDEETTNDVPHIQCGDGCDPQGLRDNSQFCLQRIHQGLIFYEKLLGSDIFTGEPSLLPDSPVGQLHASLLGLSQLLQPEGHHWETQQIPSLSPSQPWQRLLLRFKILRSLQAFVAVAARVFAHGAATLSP
Sequence of human IL-23 (human) (P29460 23-328, chain 2 of 2, further chain): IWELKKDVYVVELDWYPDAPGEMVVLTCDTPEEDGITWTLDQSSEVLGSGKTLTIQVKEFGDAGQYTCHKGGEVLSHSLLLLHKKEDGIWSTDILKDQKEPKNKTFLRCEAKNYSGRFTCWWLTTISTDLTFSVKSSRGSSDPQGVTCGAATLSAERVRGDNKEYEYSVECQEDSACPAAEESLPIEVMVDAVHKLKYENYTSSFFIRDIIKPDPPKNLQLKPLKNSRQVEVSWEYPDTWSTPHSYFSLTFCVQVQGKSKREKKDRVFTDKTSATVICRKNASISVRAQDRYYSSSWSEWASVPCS

In turn, “benchmark antibody ustekinumab (Stelara, obtained from Janssen-Cilag)” came in with an EC50 [nM] AVERAGE, hIL-23-induced proliferation of Ba/F3 cells expressing hIL-23R and hIL-12Rβ1 of 2.4 nM; an EC50 [nM] Exp 1, hIL-23-induced proliferation of Ba/F3 cells expressing hIL-23R and hIL-12Rβ1 of 1.9 nM; an EC50 [nM] Exp 2, hIL-23-induced proliferation of Ba/F3 cells expressing hIL-23R and hIL-12Rβ1 of 2.3 nM; an EC50 [nM] Exp 3, hIL-23-induced proliferation of Ba/F3 cells expressing hIL-23R and hIL-12Rβ1 of 3.5 nM. Besides, the EC50 [nM] Exp 4, hIL-23-induced proliferation of Ba/F3 cells expressing hIL-23R and hIL-12Rβ1 amounted to 2 nM; the IC50, hIL-23-induced proliferation of Ba/F3 cells expressing hIL-23R and hIL-12Rβ1 is 11.1 nM.
